According to publication PMC2854379:

Biological target: CDK5RAP2 (human (endogenous in HeLa)) (UniProt Q96SN8)
Assay: co-IP

Sequence of UniProt Q96SN8 (Q96SN8 whole entry): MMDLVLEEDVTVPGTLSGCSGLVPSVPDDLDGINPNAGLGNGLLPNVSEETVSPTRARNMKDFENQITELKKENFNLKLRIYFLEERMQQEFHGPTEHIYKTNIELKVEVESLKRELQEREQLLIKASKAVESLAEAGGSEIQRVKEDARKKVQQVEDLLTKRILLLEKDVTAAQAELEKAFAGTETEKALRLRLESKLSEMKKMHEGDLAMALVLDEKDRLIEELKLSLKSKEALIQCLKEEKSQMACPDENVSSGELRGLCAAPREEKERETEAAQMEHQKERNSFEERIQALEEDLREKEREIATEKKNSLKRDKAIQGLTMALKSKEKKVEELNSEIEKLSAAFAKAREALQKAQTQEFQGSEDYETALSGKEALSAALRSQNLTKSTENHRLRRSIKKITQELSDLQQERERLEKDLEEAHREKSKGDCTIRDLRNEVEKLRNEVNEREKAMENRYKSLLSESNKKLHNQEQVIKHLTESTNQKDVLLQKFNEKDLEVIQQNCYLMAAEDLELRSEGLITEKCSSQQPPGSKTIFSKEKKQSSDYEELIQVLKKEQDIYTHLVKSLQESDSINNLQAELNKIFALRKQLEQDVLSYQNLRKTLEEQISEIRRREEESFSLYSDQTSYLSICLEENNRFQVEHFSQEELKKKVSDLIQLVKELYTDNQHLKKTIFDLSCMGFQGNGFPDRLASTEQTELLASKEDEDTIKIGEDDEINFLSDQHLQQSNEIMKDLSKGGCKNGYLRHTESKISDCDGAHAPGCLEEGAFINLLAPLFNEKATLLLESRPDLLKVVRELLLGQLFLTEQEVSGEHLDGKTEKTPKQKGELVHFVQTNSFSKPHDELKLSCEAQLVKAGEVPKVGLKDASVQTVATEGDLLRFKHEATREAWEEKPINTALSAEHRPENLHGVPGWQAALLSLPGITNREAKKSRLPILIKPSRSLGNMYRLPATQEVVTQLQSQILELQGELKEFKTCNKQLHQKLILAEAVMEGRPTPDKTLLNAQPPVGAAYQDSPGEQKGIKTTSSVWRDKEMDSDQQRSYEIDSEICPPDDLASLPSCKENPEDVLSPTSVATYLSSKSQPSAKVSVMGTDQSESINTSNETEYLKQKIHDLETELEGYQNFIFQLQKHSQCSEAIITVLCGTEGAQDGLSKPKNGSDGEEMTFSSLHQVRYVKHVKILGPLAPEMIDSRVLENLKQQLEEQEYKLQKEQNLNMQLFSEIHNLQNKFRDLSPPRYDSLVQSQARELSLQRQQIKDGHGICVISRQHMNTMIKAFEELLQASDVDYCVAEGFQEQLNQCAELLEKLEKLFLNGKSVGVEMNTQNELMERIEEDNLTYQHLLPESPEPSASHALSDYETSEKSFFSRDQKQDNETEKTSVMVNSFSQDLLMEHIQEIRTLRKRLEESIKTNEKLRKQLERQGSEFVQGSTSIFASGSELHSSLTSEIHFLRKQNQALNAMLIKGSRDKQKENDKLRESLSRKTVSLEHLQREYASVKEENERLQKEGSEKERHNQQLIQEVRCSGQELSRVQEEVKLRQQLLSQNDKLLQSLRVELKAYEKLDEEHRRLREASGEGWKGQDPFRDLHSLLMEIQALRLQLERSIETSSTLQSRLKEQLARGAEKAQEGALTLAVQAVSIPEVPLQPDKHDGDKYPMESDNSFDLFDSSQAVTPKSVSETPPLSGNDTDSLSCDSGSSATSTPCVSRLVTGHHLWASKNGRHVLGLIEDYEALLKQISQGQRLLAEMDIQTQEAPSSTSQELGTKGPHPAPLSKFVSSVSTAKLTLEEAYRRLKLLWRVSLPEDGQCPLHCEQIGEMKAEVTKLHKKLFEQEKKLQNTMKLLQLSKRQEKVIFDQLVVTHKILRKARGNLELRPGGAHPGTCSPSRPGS

AKAP450, Q99996 1-3907
percent of total AKAP450 co-immunoprecipitated by CDK5RAP2 antibody: 40%
